Results: IntAct's records for PubMed 19098916

biological target: brr2_yeast BRR2 (UniProt P32639)
Sequence (P32639 whole entry): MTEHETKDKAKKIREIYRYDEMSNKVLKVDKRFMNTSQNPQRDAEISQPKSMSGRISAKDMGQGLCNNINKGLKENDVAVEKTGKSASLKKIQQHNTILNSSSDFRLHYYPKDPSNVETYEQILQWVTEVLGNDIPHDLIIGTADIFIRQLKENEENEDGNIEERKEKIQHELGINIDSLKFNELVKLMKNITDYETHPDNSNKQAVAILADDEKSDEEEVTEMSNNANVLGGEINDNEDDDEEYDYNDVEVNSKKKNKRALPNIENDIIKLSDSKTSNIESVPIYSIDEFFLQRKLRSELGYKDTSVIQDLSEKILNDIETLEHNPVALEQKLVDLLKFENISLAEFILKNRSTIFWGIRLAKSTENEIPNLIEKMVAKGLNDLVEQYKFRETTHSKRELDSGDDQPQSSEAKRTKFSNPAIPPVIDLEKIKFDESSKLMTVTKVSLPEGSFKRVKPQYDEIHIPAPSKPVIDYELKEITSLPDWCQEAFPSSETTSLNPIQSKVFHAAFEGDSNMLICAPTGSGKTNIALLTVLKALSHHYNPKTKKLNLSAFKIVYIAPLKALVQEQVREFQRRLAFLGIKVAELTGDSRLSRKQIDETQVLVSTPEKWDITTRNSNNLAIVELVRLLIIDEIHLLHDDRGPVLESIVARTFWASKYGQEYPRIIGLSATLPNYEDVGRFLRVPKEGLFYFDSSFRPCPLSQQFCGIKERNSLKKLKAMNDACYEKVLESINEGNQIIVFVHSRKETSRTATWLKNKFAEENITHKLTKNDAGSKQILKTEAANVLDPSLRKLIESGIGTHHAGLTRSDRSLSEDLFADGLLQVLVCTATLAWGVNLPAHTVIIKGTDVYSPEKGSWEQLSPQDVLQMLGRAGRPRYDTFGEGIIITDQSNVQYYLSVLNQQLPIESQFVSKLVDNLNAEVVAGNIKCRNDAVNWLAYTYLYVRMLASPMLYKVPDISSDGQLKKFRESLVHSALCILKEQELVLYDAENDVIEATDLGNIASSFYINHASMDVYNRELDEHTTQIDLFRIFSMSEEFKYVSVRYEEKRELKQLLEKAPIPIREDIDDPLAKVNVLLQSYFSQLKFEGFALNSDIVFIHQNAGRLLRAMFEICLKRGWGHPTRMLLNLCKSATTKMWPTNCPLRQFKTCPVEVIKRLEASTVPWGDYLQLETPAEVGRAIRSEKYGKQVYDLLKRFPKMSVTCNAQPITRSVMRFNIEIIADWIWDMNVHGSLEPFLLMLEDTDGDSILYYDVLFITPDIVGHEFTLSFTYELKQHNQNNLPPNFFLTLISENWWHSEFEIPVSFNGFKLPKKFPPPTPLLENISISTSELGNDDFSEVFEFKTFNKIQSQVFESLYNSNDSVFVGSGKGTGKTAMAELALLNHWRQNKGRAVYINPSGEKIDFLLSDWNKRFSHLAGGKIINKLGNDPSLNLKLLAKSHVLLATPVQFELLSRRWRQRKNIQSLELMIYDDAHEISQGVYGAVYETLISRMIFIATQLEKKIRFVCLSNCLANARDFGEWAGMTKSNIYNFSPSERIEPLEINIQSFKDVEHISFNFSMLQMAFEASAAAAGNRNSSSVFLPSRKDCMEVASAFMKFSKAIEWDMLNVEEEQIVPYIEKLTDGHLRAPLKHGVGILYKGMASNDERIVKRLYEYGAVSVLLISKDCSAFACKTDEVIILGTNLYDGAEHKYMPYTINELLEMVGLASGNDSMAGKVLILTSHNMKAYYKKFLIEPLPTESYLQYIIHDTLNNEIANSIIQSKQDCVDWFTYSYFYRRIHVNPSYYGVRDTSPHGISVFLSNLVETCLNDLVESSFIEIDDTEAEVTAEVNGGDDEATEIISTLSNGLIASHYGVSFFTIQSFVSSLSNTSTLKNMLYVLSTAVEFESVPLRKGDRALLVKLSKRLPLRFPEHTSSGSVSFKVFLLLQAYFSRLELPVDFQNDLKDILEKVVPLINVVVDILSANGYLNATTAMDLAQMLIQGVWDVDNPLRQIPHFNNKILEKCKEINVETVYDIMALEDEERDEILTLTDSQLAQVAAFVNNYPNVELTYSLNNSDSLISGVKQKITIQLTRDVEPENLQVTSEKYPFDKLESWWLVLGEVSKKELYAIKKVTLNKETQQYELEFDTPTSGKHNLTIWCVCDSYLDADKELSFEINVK

Sequence of Pre-mRNA-splicing factor 8 (Saccharomyces cerevisiae), P33334 H2387P (P33334 whole entry H2387P): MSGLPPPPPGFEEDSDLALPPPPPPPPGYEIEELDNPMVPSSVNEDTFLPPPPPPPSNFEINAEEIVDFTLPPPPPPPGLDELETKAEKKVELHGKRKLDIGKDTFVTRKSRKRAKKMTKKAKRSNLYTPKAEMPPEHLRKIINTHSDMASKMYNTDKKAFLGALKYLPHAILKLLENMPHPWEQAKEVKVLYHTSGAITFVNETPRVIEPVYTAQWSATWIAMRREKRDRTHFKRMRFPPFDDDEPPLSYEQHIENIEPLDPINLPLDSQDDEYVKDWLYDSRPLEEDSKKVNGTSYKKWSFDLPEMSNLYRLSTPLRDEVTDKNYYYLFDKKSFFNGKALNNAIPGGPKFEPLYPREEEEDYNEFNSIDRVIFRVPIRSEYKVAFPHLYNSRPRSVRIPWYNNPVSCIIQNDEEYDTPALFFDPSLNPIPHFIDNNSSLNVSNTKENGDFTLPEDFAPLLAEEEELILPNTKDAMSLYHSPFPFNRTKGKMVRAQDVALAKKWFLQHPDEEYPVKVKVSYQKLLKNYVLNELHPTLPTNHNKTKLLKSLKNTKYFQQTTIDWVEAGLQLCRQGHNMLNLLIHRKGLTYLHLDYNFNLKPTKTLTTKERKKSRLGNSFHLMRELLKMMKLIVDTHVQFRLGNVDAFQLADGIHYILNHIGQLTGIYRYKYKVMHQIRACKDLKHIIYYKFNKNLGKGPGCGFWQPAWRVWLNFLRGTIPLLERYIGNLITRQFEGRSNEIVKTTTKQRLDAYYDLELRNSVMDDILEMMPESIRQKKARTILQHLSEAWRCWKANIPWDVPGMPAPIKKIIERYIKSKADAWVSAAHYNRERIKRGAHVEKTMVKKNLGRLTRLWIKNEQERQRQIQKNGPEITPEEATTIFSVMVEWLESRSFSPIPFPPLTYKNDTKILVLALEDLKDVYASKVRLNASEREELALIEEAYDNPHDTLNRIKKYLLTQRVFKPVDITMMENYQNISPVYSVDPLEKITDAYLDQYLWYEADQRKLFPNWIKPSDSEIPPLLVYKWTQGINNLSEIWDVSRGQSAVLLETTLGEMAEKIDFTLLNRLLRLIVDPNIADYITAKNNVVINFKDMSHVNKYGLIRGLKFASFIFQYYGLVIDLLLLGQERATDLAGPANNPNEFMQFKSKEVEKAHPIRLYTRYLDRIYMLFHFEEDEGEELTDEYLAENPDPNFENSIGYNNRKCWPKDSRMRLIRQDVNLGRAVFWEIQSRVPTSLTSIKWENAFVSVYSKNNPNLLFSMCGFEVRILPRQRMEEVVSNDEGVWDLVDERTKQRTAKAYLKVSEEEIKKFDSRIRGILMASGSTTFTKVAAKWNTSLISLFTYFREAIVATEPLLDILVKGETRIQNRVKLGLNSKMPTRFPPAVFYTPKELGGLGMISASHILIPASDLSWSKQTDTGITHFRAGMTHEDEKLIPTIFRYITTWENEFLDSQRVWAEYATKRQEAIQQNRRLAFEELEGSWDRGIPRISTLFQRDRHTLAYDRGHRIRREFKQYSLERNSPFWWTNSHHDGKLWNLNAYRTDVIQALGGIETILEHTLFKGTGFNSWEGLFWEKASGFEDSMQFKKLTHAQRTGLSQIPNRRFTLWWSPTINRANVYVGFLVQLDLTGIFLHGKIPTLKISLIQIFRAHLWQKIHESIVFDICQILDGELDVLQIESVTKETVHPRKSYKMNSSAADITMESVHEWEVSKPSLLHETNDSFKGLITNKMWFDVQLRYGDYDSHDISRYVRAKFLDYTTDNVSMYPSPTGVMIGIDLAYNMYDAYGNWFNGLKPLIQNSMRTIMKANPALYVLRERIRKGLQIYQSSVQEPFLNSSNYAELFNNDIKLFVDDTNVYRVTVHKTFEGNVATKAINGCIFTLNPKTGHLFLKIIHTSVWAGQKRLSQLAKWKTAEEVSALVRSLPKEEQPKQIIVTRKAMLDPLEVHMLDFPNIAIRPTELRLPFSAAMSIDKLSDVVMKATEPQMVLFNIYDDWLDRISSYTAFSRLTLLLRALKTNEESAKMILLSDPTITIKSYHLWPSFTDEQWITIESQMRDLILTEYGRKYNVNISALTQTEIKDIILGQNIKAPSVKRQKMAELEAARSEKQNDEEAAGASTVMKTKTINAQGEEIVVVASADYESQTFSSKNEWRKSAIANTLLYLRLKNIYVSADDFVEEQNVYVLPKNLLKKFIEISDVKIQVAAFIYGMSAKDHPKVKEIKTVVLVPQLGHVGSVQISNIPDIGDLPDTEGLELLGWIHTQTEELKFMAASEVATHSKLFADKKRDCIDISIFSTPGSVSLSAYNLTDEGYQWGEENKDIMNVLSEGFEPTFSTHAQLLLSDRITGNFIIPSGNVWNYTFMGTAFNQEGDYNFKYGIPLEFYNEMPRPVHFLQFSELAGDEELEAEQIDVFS

effect of a mutation on the interaction | Substance
disrupting interaction strength | Pre-mRNA-splicing factor 8 (Saccharomyces cerevisiae), P33334 H2387P
disrupting interaction strength | Pre-mRNA-splicing factor 8 (Saccharomyces cerevisiae), P33334 H2387R
disrupting interaction strength | Pre-mRNA-splicing factor 8 (Saccharomyces cerevisiae), P33334 R2388G
disrupting interaction strength | Pre-mRNA-splicing factor 8 (Saccharomyces cerevisiae), P33334 R2388K
